Laboratory results reported in PMC8906541, “A conserved arginine in NS5 binds genomic 3′ stem–loop RNA for primer-independent initiation of flavivirus RNA replication”.

Columns and labels:
NS5 WT [1] = target: T1, NS5 WT (Dengue virus 2, UniProt A9LIC9 2492-3391); assay: EMSA; Kd value only in figure; >100-fold excess yeast tRNA does not affect binding; details: protein: recombinant; tags: N-terminal His6-TEV, cleaved; stem-loop
NS5 WT [2] = target: T1, NS5 WT; assay: EMSA; Kd stated only as micromolar range; value in figure; details: protein: recombinant; tags: N-terminal His6-TEV, cleaved; stem-loop

B1: 3'SL (structured_RNA)
RNA: AGAUCCUGCUGUCUCCUCAGCAUCAUUCCAGGCACAGAACGCCAGAAAAUGGAAUGGUGCUGUUGAAUCAACAGGUUCU
Question: Does B1 bind (NS5 WT [1])?
Answer: binds

B2: 5'SLA (structured_RNA)
RNA: AGUUGUUAGUCUACGUGGACCGACAAAGACAGAUUCUUUGAGGAAGCUAAGCUUAACGUAGUUCUAACAG
Question: Does B2 bind (NS5 WT [2])?
Answer: binds
